According to US20030148973A1 (published 2003):

Biological target: T1, HLA-A0201 molecules on the surface of T2 cells
T1 construct: whole, on cells; Empty (peptide-stripped) HLA-A0201 on T2 cells; also called HLA-A2
Test: T2 cell HLA-A0201 stabilization; 20 µg peptide on 10^6 acid-stripped T2 cells, BB7.2 staining, flow cytometry
Description: Subsequent dissociation of peptides from the HLA class 1 MHC molecules results in the loss of BB7.2 monoclonal antibody binding.
In order to determine whether the identified nonapeptides can be presented by HLA-A0201, T2 cells were propagated in RPMI complete medium (RPMI medium supplemented with 10% heat-inactivated bovine serum, 120.0 units per ml of penicillin G sodium, 120 μg per ml of streptomycin sulphate, and 0.35 mg per ml of L-glutamine). The ability of MAGE-A1 derived peptides to bind and stabilize surface HLA-A0201 molecules on T2 cells was determined utilizing a standard protocol (Deng, Y. (1997) J Immunol 158:1507-1515). The required number of T2 flasks were incubated overnight at 26° C. serum-free culture medium (RPMI medium supplemented with 120.0 units per ml of penicillin G sodium and 0.35 mg per ml of L-glutamine). The next day, cells were washed with RPMI medium (without bovine serum) and then resuspended in denaturing solution (300 mM Glycine in 1% BSA, pH 2.5) for 3 min, in order to strip the existing HLA A2 molecules of endogenous peptide. The stripped T2 cells were washed at once in an excess of RPMI media (without bovine serum) to neutralize the acidic stripping solution. To load the peptide of interest into the HLA-A2 peptide binding groove, 20 μg of specific peptide was pulsed onto 10⁶ denatured T2 cells in 2 ml peptide loading media (RPMI medium supplemented with 120.0 units per ml of penicillin G sodium; 0.35 mg per ml of L-glutamine; 1× sodium pyruvate; 1× non-essential amino acids; 1×2-mercapto-ethanol) for 4 hours at 26° C. The cells were washed in cold 1% BSA in PBS and resuspended in 100 μl of cold 1% BSA in PBS to prevent MHC protein turn over. […] The binding of BB7.2 was detected via the addition of 1.0 μg per test of goat anti-mouse IgG-Fc fluorescein (FITC) conjugate (BETHYL Laboratories Inc). […] The samples were then analyzed by Flow Cytometry, and the results were expressed in units of Fluorescence Index (FI), calculated by the equation: […]

Fluorescence Index (FI) | Binder
0.52 FI | LQLVFGIDV (also called Peptide # 3) [MAGE-A1 151]
1.61 FI | SAYGEPRKL (also called Peptide # 14) [MAGE-A1 230]
2.18 FI | KVLEYVIKV (also called Peptide # 1) [MAGE-A1 278]
